Measured values published in publication PMC13168245.

Biological target: AMC008 SOSIP.v4.2 Env (HIV-1 (clade B, isolate AMC008))
Assay: mass photometry; AMC008 alone or with one excess Fab, 1:9 molar ratio in PBS, on ice 30 minutes, diluted in PBS; mass increase divided by 55 kDa per Fab

Row | Substance | stoichiometry N
1 | AMC008 SOSIP.v4.2 Env (complex) | 3
2 | antibody 3BC315 Fab | 2.07 Fab/55 kDa
3 | antibody b12 Fab | 3.09 Fab/55 kDa
